Patent US20240287172A1 (SCIRHOM, published 2024)

What was measured:
miR2-FL-WT-T7 = target: T1, miR2-FL-WT-T7 (mouse, UniProt Q80WQ6 1-827); experiment: FACS, MEF-DKO cells, 3 µg/ml
T1 construct: on MEF-DKO cells
T1 sequence: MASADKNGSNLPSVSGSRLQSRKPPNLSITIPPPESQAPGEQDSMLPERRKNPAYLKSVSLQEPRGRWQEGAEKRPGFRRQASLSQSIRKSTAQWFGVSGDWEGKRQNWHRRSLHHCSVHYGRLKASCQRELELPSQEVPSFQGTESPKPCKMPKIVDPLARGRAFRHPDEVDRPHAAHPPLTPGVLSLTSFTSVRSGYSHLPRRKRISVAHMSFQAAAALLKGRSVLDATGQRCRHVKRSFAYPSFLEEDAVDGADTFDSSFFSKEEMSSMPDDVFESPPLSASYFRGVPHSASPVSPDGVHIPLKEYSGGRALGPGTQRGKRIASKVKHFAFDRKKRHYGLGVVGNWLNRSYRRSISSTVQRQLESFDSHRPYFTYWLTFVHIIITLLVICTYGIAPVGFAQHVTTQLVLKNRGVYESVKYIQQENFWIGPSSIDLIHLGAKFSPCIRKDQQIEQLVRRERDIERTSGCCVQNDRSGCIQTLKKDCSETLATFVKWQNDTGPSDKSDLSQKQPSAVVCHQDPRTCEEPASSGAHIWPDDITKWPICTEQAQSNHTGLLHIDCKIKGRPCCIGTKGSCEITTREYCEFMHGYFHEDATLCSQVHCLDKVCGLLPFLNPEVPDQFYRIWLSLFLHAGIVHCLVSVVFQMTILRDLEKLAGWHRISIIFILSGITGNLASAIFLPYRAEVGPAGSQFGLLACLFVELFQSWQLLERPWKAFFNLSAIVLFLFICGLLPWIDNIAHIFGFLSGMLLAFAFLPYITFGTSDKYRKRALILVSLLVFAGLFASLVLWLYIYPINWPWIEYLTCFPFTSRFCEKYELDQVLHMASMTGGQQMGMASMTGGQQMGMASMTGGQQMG
Source text: (§1) In brief, immortalized MEF-DKO-hiR2-FL-WT-T7 cells, MEF-DKO-miR2-FL-WT-T7 cells and MEF-DKO-hiR2-FL-R441K-T7, MEF-DKO-hiR2-FL-K443R-T7, MEF-DKO-hiR2-FL-V459I-T7, MEF-DKO-hiR2-FL-G481Q-T7, MEF-DKO-hiR2-FL-L488R-T7, MEF-DKO-hiR2-FL-L493I-T7, MEF-DKO-hiR2-FL-D496T-T7, MEF-DKO-hiR2-FL-H505R-T7, MEF-DKO-hiR2-FL-Q512L-T7, MEF-DKO-hiR2-FL- R513K-T7, MEF-DKO-hiR2-FL-D528N-T7, MEF-DKO-hiR2-FL-P533-T7, MEF-DKO-hiR2-FL-M534S-T7, MEF-DKO-hiR2-FL-G540S-T7, MEF-DKO-hiR2-FL-R543Q-T7, MEF-DKO-hiR2-FL-T544P-T7, MEF-DKO-hiR2-FL-G546A-T7, MEF-DKO-hiR2-FL-A547V-T7, MEF-DKO-hiR2-FL-R582Q-T7, MEF-DKO-hiR2-FL-F588L-T7, MEF-DKO-hiR2-FL-M591I-T7, MEF-DKO-hiR2-FL-E594K-T7, MEF-DKO-hiR2-FL-E626D-T7, MEF-DKO-hiR2-FL-L657I-T7, and MEF-DKO-hiR2-FL-H835Y-T7 cells were harvested with 10 mM EDTA in PBS, washed and resuspended in FACS buffer (PBS, 3% FBS, 0.05% sodium azide), and seeded in Nunc U-bottom 96-well plates (Thermo Fisher Scientific, USA) at approximately 3×10⁵ cells per well.
(§2) To pellet cells and remove supernatants, the plates were centrifuged at 1,500 rpm and 4° C. for 3 minutes. For primary staining, cells were resuspended in 100 μl per well of either FACS buffer alone (controls) or the purified antibodies 3, 5, 16, 22, 34, 42, 43, 44, 48, and 50 of the invention at 3 μg/ml FACS buffer and incubated on ice for 1 hour. Afterwards, plates were centrifuged at 1,500 rpm and 4° C. for 3 minutes and washed twice with 200 μl per well of FACS buffer. For secondary staining, cells were spun down and resuspended in 100 μl per well of PE-conjugated goat anti-mouse IgG F(ab′)2 detection fragment (Dianova, Germany) diluted 1:100 in FACS buffer. Protected from light, the cell suspensions were incubated on ice for 1 hour. Plates were then centrifuged at 1,500 rpm and 4° C. for 3 minutes and washed three times with 200 μl per well of FACS buffer. Finally, cells were resuspended in 150 μl per well of FACS buffer and analyzed using a BD Accuri™ C6 Plus flow cytometer (Becton Dickinson, Germany).

[1] = target: T2, hiR2-FL-P533-T7 (deletion of P533) (human, UniProt Q6PJF5 1-856); experiment: FACS, MEF-DKO cells, 3 µg/ml
T2 construct: single residue deletion, not a substitution; on MEF-DKO cells
T2 sequence: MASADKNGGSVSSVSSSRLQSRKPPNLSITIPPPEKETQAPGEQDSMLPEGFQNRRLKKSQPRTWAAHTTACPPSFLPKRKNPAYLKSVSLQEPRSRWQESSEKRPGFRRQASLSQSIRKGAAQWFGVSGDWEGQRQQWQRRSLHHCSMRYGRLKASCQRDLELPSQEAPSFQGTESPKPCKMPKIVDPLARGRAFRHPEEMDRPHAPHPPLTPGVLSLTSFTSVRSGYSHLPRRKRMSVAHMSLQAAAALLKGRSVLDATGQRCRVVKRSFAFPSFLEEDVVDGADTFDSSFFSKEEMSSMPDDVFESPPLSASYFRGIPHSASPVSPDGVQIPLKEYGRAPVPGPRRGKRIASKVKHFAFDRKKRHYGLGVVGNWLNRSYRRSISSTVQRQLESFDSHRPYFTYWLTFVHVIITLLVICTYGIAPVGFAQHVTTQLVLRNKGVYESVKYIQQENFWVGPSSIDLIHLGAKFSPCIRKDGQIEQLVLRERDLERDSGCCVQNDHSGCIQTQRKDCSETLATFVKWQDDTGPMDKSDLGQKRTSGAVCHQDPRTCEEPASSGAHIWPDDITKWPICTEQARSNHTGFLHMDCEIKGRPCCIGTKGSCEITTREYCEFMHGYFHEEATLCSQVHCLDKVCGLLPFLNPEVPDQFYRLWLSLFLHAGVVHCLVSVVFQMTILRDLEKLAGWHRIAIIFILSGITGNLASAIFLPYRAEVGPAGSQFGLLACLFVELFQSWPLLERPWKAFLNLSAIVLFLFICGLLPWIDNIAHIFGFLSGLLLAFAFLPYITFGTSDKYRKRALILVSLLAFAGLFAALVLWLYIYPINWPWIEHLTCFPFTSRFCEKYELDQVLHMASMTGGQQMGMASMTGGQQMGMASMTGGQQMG
Source text: as §1, §2

B1: antibody 5 (antibody, V domains shown)
VH: QVTLKESGPGILQPSQTLSLTCSFSGFSLSTFGMGVGWIRQPSGKGLEWLAHIWWDDEKYYNSALKSRLTISKATSKNQAFLKIANVDTADTATYYCARISNYGSNYWYFNVWGTGTTVTVSS
VL: QVVLTQSPALMSASPGEKVTMTCSAGSSVSCMYWYQQKPGSSPRVLIYDTSNLASGVPARFTGSGSGTSYSLTISRMEAEDAASYYCQQWNSYPLTFGAGTKLELK
notes: mouse IgG, kappa light chain; also called clone #5; purified antibody 5
loss of binding vs wild type (miR2-FL-WT-T7): ≥ 95%
loss of binding vs wild type [1]: ≥ 95%

B2: antibody 42 (antibody, V domains shown)
VH: QVTLKESGPGILQPSQTLSLTCSLSGFSLSTFGRGVGWIRQPSGKGLEWLAHIWWDDEKYYNPALKSRLTISKDTSKNQVFLRIANVDTADTATYYCARIQNYGSNYWYFDVWGTGTTVTVSS
VL: LIVLTQSPAIMSASPGEKVTMTCGATSRISYMFWYQQKPGSSPRVLIYDTSNLASGVPVRFSGSGSGTSYSLTISRVEAEDVATYYCQQWNSYPLTFGAGTKLELK
notes: mouse IgG, kappa light chain; also called clone #42; purified antibody 42
loss of binding vs wild type (miR2-FL-WT-T7): ≥ 95%
loss of binding vs wild type [1]: ≥ 95%

B3: antibody 44 (antibody, V domains shown)
VH: QVTLKESGPGILQPSQTLSLTCSFSGFSLSTFGMGVGWIRQPSEKGLEWLAHIWWDDDKYYNPALKSRLTISKDTSKNQIFLKITNVDTAETATYYCSRIGNYGSNYWYFDVWGTGTTVTVSS
VL: QIVLTQSPAVMSASPGEKVTMTCTASSSVYYMYWYQQTPGSSPRLLIYDTSNLASGVPVRFSGSGSGTSYSLTISRMEAEDAATYYCQQWNTYPLTFGAGTKLELK
notes: mouse IgG, kappa light chain; also called clone #44; purified antibody 44
loss of binding vs wild type (miR2-FL-WT-T7): ≥ 95%
loss of binding vs wild type [1]: ≥ 95%

B4: antibody 43 (antibody, V domains shown)
VH: QVALKESGPGILQPSQTLSLTCSFSGFSLSTFGMGVGWIRQSSGKGLEWLANIWWDDDKYYNPALKSRLTISKDASKNQAFLKIANVDTADTATYYCARIGNYGSNYWYFDVWGTGTTVTVSS
VL: QIVLTQSPAIMSASPGERVTMTCSANSRISYMYWYQQKPGSSPRLLIYDTSNLASGVPVRFSGSGSGTSYSLTISRMEAEDAATYNCQQWSSYPLTFGAGTKLELK
notes: mouse IgG, kappa light chain; also called clone #43; purified antibody 43
loss of binding vs wild type (miR2-FL-WT-T7): ≥ 95%
loss of binding vs wild type [1]: ≥ 95%

B5: antibody 22 (antibody, V domains shown)
VH: QVTLKESGPGILQPSQTLSLTCSFSGFSLSTFGMGVGWIRQPSGKGLEWLAHIWWDDEKYYNSALKSRLTISKATSKNQVFLKIANVDTADTATYYCARISNYGSNYWYFNVWGTGTTVTVSS
VL: QVVLTQSPALMSASPGEKVTMTCSAGSSVSYMYWYQQKPGSSPRVLIYDTSNLASGVPARFTGSGSGTSYSLTISRMEAEDAATYYCQQWNSYPLTFGAGTKLELK
notes: mouse IgG, kappa light chain; also called clone #22; purified antibody 22
loss of binding vs wild type (miR2-FL-WT-T7): ≥ 95%
loss of binding vs wild type [1]: ≥ 95%

B6: antibody 34 (antibody, V domains shown)
VH: QVTLKESGPGILQPSQTLSLTCSFSGFSLSTFSLGVGWIRQSSGKGLEWLAHIWWDDEKYYNPALKSRLTISKDTSKNQVFLKIANVDAADTATYYCARAYYSKSYYALDYWGQGTSVTVSS
VL: DIQMTQSPSSLSASLGERVSLTCRASQEISGYLSWLQQKPDGTIKRLIYAASTLDSGVPKRFSGSRSGSDYSLAISSLESEDFADYYCLQYANFPFTFGSGTKLEIK
notes: mouse IgG, kappa light chain; also called clone #34; purified antibody 34
loss of binding vs wild type (miR2-FL-WT-T7): ≥ 95%
loss of binding vs wild type [1]: ≥ 95%

B7: antibody 16 (antibody, V domains shown)
VH: QVTLKESGPGILQPSQTLSLTCSFSGFSLSTFALGVGWIRQPSGRGLEWLAHIWWDDDKYYNPALKSRLTISKDTSKNHVFLKIANVDTADTATYYCARITTYYYGMDYWGQGTSVTVSS
VL: DIVLSQSPATLSVTPGDSVSLFCRASQSIGNHLHWYQQESHASPRLLIKYASQSISGIPSRFSGSGSGTDFTLSINSVETEDFGMYFCQQSYNWPLTFGAGTKLELK
notes: mouse IgG, kappa light chain; also called clone #16; purified antibody 16
loss of binding vs wild type (miR2-FL-WT-T7): ≥ 95%
loss of binding vs wild type [1]: ≥ 95%

B8: antibody 3 (antibody, V domains shown)
VH: QVTLKESGPGILQPSQTLSLTCSFSGFSLTTFAMGIGWVRQPSGKGLEWLAHIWWDGEKYNNPVLKSRLTISKDTSKNQVFLRIANVDTPDTATYYCARISSIYYIIDNWGQGTSVTVSS
VL: DIVLTQSPATLSVTPGHSVSLSCRASQSISNNLHWYQKKSHESPRLLIKYVSQSISGIPSRFSGSGSGTDFTLSINSVETEDFGMYFCQQSYNWPLTFGAGTKLELK
notes: mouse IgG, kappa light chain; also called clone #3; purified antibody 3
loss of binding vs wild type (miR2-FL-WT-T7): ≥ 95%
loss of binding vs wild type [1]: ≥ 95%

B9: antibody 48 (antibody, V domains shown)
VH: QVQLQQSGTELVRPGTSVKVSCKASGYAFTNYLIEWVKQRPGQGLEWIGVINPGSGFTKYNEKFKGKATLTADKSSSTVYMHLSSLTSEDSAVYFCARGLYRAMDYWGQGTSVTVSS
VL: DIQMTQSPASQSASLGESVTITCLASQTIATWLAWYQQKPGKSPQLLIYGATTLADGVPSRFSGGGSGTKFSFKISSLQAEDFVSYYCQQLYSTPYTFGGGTKLEIK
notes: mouse IgG, kappa light chain; also called clone #48; purified antibody 48
loss of binding vs wild type (miR2-FL-WT-T7): ≥ 60%

B10: antibody 50 (antibody, V domains shown)
VH: QVQLQQSGAELVRPGASVKVSCKASGYAFSNYLIEWVKQRPGQGLEWIGVINPGSGFTKYNEKFKGKATLTADKSSSTAYMQLSSLTSEDSAVYFCARGLYRAMDYWGQGTSVTVSS
VL: DIQMTQSPASQSASLGESVTITCLASQTIGTWLAWYQQKPGKSPQLLIYAAASLADGVPSRFSGGGSGTKFSFKISSLQAEDFVNYYCQQIYSTPYTFGGGTKLEIK
notes: mouse IgG, kappa light chain; also called clone #50; purified antibody 50
loss of binding vs wild type (miR2-FL-WT-T7): ≥ 95%
